Data taken from publication PMC11298593, “ArcS from Thermococcus kodakarensis transfers L-lysine to preQ0 nucleoside derivatives as minimum substrate RNAs” (The Journal of Biological Chemistry, 2024).

How the values were obtained:
purified protein [1] = substrate: N#Cc1cn([C@@H]2O[C@H](COP(=O)(O)O)[C@@H](O)[C@H]2O)c2nc(N)[nH]c(=O)c12; test: purified protein; format: biochemical, Thermococcus kodakarensis; settings: 200 μM lysine co-substrate, pH 7.6, 5 mM MgCl2, 50 mM KCl, no 2-mercaptoethanol, 60 °C, unit μM from text b23 (table heading prints μmol)
purified protein [2] = substrate: NCCCC[C@H](N)C(=O)O; test: purified protein; format: biochemical, Thermococcus kodakarensis; settings: 204 μM S. cerevisiae tRNA-Phe-preQ0 co-substrate, pH 7.6, 5 mM MgCl2, 50 mM KCl, 60 °C, labelled compound, unit μM from text b13 (table heading prints μmol)

B1: ArcS and RaSEA complex (ArcS-RaSEA complex) (Thermococcus kodakarensis KOD1) (protein)
chain: MEVIKHEGPGRLGVVRLGDYSFRTPALVGIDFTLSPFNSFFHPKEPGEYDFNLAPSIPLGFYTPDEVIQKAIGRLWSVNYDGFNAFYLPALRRTEYLEEFFKIIDRHNFDAVYLGNSKILIKEYRYFVRILRELRERFPNVMIIADLEPFFYPLAVYLGIDAFDTRSLKLYDFEGKGFTQFSPFLWSNEPNSLDFAREVILLVRKALEEGKLRYLVENFFPTQYNAGILRIADLEHPDYLEKYTPIQKETVYFISDASIRRPEVKRWHERVLERFTPPKNVELLLLFPCSAKKPYSFSRSHTLYRRAVKEALGSGTSKVHELILTSPFGVVPREWEWLAKYDIVVTGHWSEEEIKPAAELLAKTLEKYPEDIPIVAHLDEAYVEIAKLASELSGREIIFTDVKNGTTSHESLRSLTETLREFQIEGTKEDRTYRYFENIRKVFDFYFGVGAGEAILPENGQVKGSKMLRIFVEGQQTGTFTDGVISVTPYGMQRIYDALKSYWVKIDFELRGDVFAVGVEEADPRIRPDDIVGIVRDEKVVGVGKAVLSGEEMVRAKKGVAVKVRKRV
notes: recombinant complex expressed in E. coli, purified aerobically (RaSEA apo, no Fe-S cluster); His x 6-ArcS given for the co-expression; with Archaeosine synthase subunit beta
Km (purified protein [1]): 433.4 ± 6.0 µM
kcat (purified protein [1]): 0.387 ± 0.0617 s⁻¹
Km (purified protein [2]): 40.9 ± 8.7 µM
kcat (purified protein [2]): 0.102 ± 0.0117 s⁻¹
